Paper PMC3605678

Target: ERK5ΔC385–399 (human) (UniProt Q13164)
Test: fluorescence polarisation

MKK5 PB1-D construct (16–130), unlabeled, sequence (Q13163 16-130): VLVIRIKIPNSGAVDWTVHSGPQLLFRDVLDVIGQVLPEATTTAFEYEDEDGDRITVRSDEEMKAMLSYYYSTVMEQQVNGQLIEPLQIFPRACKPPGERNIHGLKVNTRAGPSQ

## MKK5 PB1-D construct (16–130), unlabeled (from UniProt Q13163 16-130) (domain or fragment)
  fold reduction of binding affinity against the wild-type pair: 20 fold
